Measurements published in a protein production outcome set (Wang et al. 2014).

assay: label from the status in PepcDB records

Row | Sequence | protein production
1 | MGLNKEAVKIGFAYVGIVVGAGFSTGQEVMQFFSPYGLWSYIGVILSGLILGFIGRQVAKIGTAFDAQNHESTLDYLFGNKFSKIVDYLLIFFLFGISVTMLAGAGSTFEESFGVPTWLGALIMVIVIYITLLMDFNKIVRALGVVTPFLIILVVIIAAYYLFNGSISFGEVNDAVPDASLVKGILYGINYGGLAFAVGFSTIVAIGGDASRRRVSGAGALFGGIVYTILLALINFALQSEFTKIEDASIPMLTLANDIHPWIGLVLSIIMLAVMYNTILGLMYSFAARFTEPYSKKYHIFIVVMVIVAFALSFVGFAGLINFLYPIMGVVGLVVVIGVLVKYYSRKRQNKKFIA | failed
2 | MGLNNARGLSFGLDGALYVTEAGTGGNGACIPSVTGQGGSLCYGTSSTVLKIENGVTSPVLTGLPSIALADGTGAGGARDIQFDTTGKPYILMGYGANPTFRNNLGNIDLGKIIAPDFQTNSWTSIADLANYELVNNPDGGDINSNPLGFFIDGNNLIAVDAGANNLLSVQTNGTNLQTLSVFPQEILTNPVFPPSGTPSTEPGQVPTPTAPPPPQLPIQVVPSSVVRGPDGAYYVSQFTGFPFPEGGAKIYRVGTDGETTIYADGFTQLTDLEFDSAGNLYALQYANQSAWKGNFDGSLIKIAADGTRTTILSGNGLESPNALAIAPNGEIYITNRSDRPGLGQIIRVENSQAVPLEHHHHHH | failed
3 | MGLPAHHIDAFLDRLRTAHYSEVSLRKKRRVLCAFSGWMKHRNIDLIDLDESVTARFMKRMIDASRDRVQRARPTLRQFLAYLRAEAIVCSPTLGSQSAIAHTYRRYLDYLRQDRGLAKNSLLVYGPFIRDFLDSHSAGDGSLLPDAFDAVTIRNHLLARSKGRSAEYTRLMAVALRSFCHFLFLRGDTARDLAGSVPSVRKWRQSTVPTFLTPEQQEALIASADRSTPTGLRDYAILLLLARLGLRAGEIIEIELDDIHWRSGELVVHGKGQMVEHVPLSSEVGAAIATYLRDGRGASASRRVFLRRLAPRVGLAGPAAIGKIVCQAFARVGFRPACRGAAHLFRHGLATTMIRHGASMAEIAEVLRHRSPDSTAIYAKVAFEDLRGVARSWPTAGGAILEHHHHHH | not failed
4 | MGLPNLSRFREKCCYCYRSIGDGISVCDCGFSFCEKHRGIHLGKSGCRIVFDIKEVGSDLGIEIKNAMLGEEEVEELRRRMEILIKPGDEDERVLSRDEEVRCVHGCPEGPSSIEMGNIGGLKCNLCDVKTRLWVCFSCGYVGCGRMQYGAEGNGHAKSHYEETQHNVFVLVPSLLKEDCEIFCYLCDSNIRSRYNSAENSVTIDFGGADGKTEERSVRKVMSCRGIAEPEFLEKKRAPESKGESVPSPYVGIINSGNTCYISSVIHMVGYAVSKEEFDLEQHFEICYMKNPLECFFCQLMRVLSKMKETKDNEGVNRISILDLIMLIWRDMPMFGKFAQQDAHEFLLFLLEKIREGERSYLIPPITSLFEFEVGRRVSCSGCMDDSTSYESMLMICTFLKGNIRKSVEMFFLPDEWSCECGGKKKVSRFITTLPKYLIIQVGRYSYNNYKVEKIKDKIEMRSIKLGSFMSKDEADRSLVRKLVDSGYPEEDAAKALGIFWNDESKARSLLENHAMMDMRTDSKYRVVGCINHSGDNIKAGHYTWWVYDNGKCFKIDDTTVLNSNVEVLEDGYIFLFK | failed
5 | MGLRALSASVNAFECEKQHGDPKSMRINSVPGGRPPRDGRPSRAGALFGCSSAEALYFGSECRPGPSARRFGDNRAHSSLTYWCGMNTFDFGFDDSEDSPHEDPLEDLVAAYENDPSAYFDSGDLEEIASFYFEEGEMETALEVIDRLIELHPYTSDAWMRRGILLNNLGRPEEALEAYEQALDVNPTDTETLINLGITLDSLGRVDEALEAYDEALSINPLHGEALFNLGVTLERDEQLEAAVEAFQRCADVYPEHPEVWYELGYCYDRLGEDEKSVEAYDNHLDIDPYSKDAWYNRGIVLNRLGRFGEAVESYDMALAIHDEFASAYYNRGNAEANQGDLEAAVESYERVLELEGPDAATYYNLALAYEEQGDLRAARTYYEKTLDLKSNYPEAWYGLGCCFDTDERPEEALECFRYAVNLDANVPKFWTARADCAYKVGKLDEALESYQHAVRLDESNEHAWTGYAETLLEKEQPEEALEAYRQALELDPKSANTYFRQAKALLALGRADESIRALKTAFRLDPAKKEEFQKAYPTLYDNDRVRRLLDLDS | failed
6 | MGLRMSESAKPYFAMVCLQFGYAGMNLVTKTVLDRGMSHYVLVAYRNAFATAAIAPFALLSERKVRSKMTFPIFMRIFLLALLGPVIDQNLYYIGLKLTSPTFSSAVSNIVPAITIILATLFRMEKVEMRKVRCLVKVMGTLVTVVGSILMIFYKGPFINFFRSHLTAASSPPTADYLKAAVFLLLASLSWASFFVLQAATLKKYSAHLSMSTMVCFMGTLQSLALAFVMEHNPSALNIGFDMNLLASAYAGIMSSSIAYYVQGLMMQRKGPVFVTAFNPLIVVIVSIMSFFVLGQGIYLGGYVNNNRVIGVVVLMVGVYAVLWGKHVDDDGEETRHEDNVVAVKCCSGNNGLTIMPKIDEADEEDVETGKATSEKESSVPEVVVVVFCSENVHSVSRPN | failed
7 | MGLSAVAVFAISGALDAARQKMDILGFMLIGTATGLGGGTLRDLLLGNVPVFWIREPIWIIVCLVSTAITYFIAPKLASITRALIWMDAVGIALFAVVGTEIALEFGTSPLIAICMGVMTASFGGIARDVLSGSNLTLMNEELYITTTVAGSVMYLWLNTLSLPANYDLIGGFFIAFILRALAIRFHIKLPNHYRKD | failed
8 | MGLTDIFLNLLLFVYPAVFIIYQIILYEISARKQINQEALKYSNLPVLSIIVPIKNEEISVIQGLLDNLSNLIWDKKKLEIIIVSDDNEDYFTKIINTVKVPKDLTVYFYRREKKLGYKSGALQYGFEKATGDLILTIDVDSRLPPNALINAYEKMQSNTCDAIVFQWNGYSSNQYSTLAKGMVVSTLFASKALFEGKEKLKLKIYPVGSGTMFSREALRVVNGWDYRLVQDDLEIGTRLIYNGKNVCASGIPIYVEVPDNFYSFYVQQTRWAMGSAEVLRNRLKYIIKSKISFTQRMDLIIYLLQYTPVIVTFFISTLLSLMLPFRIGHDPLNSPALLFWLVSLGLYASLLLSLALKLGLNLKDSLMGIGRLTAFTVSISPFIVFNFFKGLLKSGNTYVITPKGTVKKTNKLLRIIAIIGVFGLLYLLSSILYIYEGYYVTGIWLLYYSSAYLYTMLLYYKEL | failed
9 | MGLTSHKYKYVSIYFLALLFLGIAVIESLHISHTRDLQEGLRQQAKEDLSIVRFQLEAEILGDIYTVKGLTTLLTLDPDLNIYQWEPLSAAVIRNSDHLRSLGIAPNDVVAFSYPLPQTNALLGLDYRTVPQQWQSIKKAREIKQTFVSGPVDLVQGGRALVIREPIFYDPPKDTRYWGVLSVVMDWDSLLSATSIYSFGEHFQVAIRGLDSRGSEGDVFFGEPRVFEHAFAQENVYFPYGSWRIAVAEKQDLLQQLSWYTRNAVRLLGYSVLLVLMAGFGVIMRLYQVAEERALHDPLTHLPNRRYFIYTIEHYFENAKRSHSEGNFALLNIDIDRFKSINDSHGHSAGDKVLVACAERIKSSLRVSDLVARIGGDEFLVLIPRIHREQDVLKVSDNILKRISETPIVYDDKLIHVRVSIGYALYDQSFATPDEMFKLADERMYTAKRRQNPLYRF | failed
10 | MGMASMSSGTESLRLCVFDLRRGQHEGQELDKILFFYPPDLTFSTQLSVIGLSEGLITFTRLFSPEAACEVIEAERHSHVFYEAEPDIWMVMIVEKNKEIEAVWRIDALRRVLKEVHSLFVMFQGSIRALLEKEPTGGLVRSHLYPFITDYLNDLFVGKKQQLPSFRDTLKERGTVQMLTLARDAALEVQSLVGVLDSCAGTVRCHSVILFHDLLVSTTLSPDDTVDLFAFSVMRLTTNALSSGTSSWSYLRKGSGSPQISSRSTTVPPLGSGGTLPSGNGSSTGRVIRPLQHDKWSKGKDGFLVTDIWGLDATPTILIQKTQESFYLLTYQYKSLTLVLLVPIAAIVNGELDISFVKQQVIENASTKILKVEEKLSKGWGGENAYHVSGYRYLLVDNDMEVSRASPPGKVATLAKESLLALNKLREEVDTEKNRSKQEKDMEICIRAKNNTWVIARLNRGKELYMALEKASETLLDATDSVQRFSNRYCSGAFPMD | failed
11 | MGMEHKTYEADLFVWCQQQADGLRALSRSRRDLPDDLDLEHIAEEIEDMGRSELREATSLVRQICVRVIMAMSAPEAPDRARWRSEVVSWHNLLLDTITPGMIDRIDIGVIWRRAVSEAKAALIEINVAPQAGLSFQAPLPADHFLDEDFDYDATVARLGPTA | not failed
12 | MGMPAGPYLLTPPGVYAPQHDTDLLARALRREDIDTSTEVLDLGTGSGALAVHAARLGARVTAVDISRRAVLTARLNALLAGRRVTVRRGDLTAAVPGRSYDLVVSNPPYVPSPSARLPSRGAARAWDAGHDGRAFVDRICDTAPAALRAGGALLIVHSALCGTRPTLDRLAAAGLDASVTDRAFVPFGPVLRARRAWLRRQGLLTDENLEELVVIRAEHS | failed
13 | MGNKKEIAIVALTTGFVLTSVTPYGVGHAEETGQMQVEIQEDSFRTGDLTQPSKKAPENVVKDALKENTEHALSPKQVSAETGVDYKVLQKRGSYDGTTLVRMQQIYEGKEVYGHQLTAHVDKKGIIKSISGASAQNLTQEDLKKPINLSKEEAKQYIYKKYGNDTKFISEPEVKAVIFVDENHGQASNAYQVTFAATTPNYVSGTYLVNAHNGEMLKDMVQESSLKISEEYVESVKENKTSNFTSLTGTGKDDLGVTRTFGISKQTSGNYALADYTRGQGIETYDVNYRDITNEESYYPGILATSVSTTFNDPKAVSAHFLATKVYDFYKEKYKRNSFDNKGKKVVSVVHAWDSGGTNDPENWENAFSTNINNISMLLYGDPMVKAFDIAGHEFTHAVTSSESNLEFSGESGAINEALSDIMGTAIEKYINNGEFNWTIGEQTGSTFRNMKNPTAINFSEGLPYPDDYSKYNDLNGEDYGGVHFNSSIINKVAYLMAQGGTHNGVNVNGIGEDRMFDIFYYANTDELNMTSNFSELKLACLKVATNKYGANSIEVQAVQNAFDAAKITGTVKENEKTAENQAPELTVPFTITLRVGDTFDPMRNVKAVDKEDGDLTNKVKHKGDVDTSKPGTYIVEYMVVDSQGRNATATQTVIVEGNGETSDLEPKLTVPVGATIHVGDSFVPMAEVLAIDKEDGDLTSKIKVDGEVDTTKAGTYVLTYTVTDSKGHEVTAKQTVTVKVREEVKNDKPILKVPATTSITEGDQFDPLVGVSATDKEDGDLISKVAYEGTIDTTKAGTYEIIYSVRDSVGNEVNAIQKVLVKDKETSKANGLANKENKSNISNNSNSDKKEYTYKELPKTGVSTTNSAAIGILIIIVGTVLTLVRKFRKIQK | failed
14 | MGNQLAIQMNSDEDDDFDSSDNELGFNVINFTVNAMDLRSDYCSSEMPVIRGKPDLVKFQKTDMYKEIQASSGLVSNPNNRWNLVHALQQRENGLASPHSASFSKNQQRYISNLYIPNKKATRLMSLESKIFVTKFNRSGSKLLTACQDGFVRIYDGAKGTYHLLNRIRARDVEWSIIDADFSPNGEHFAYSTWSRSLFIMPVNGGEDDCQWIDVNGLPSHRLAIFSLRYSPTGDKIIGGSNNSTVIVTDIRTRNTQILRTHRMPGKDVNSVCFLHDKDPNVIIAGCDDGLLKVYDLRTTFRSRDLSKSVASFIGHYDGITYIDSRNDGYHVLSNSKDQSIKIWDIRQPSNMRNRSRSRQQVDPTTWDYRWNRVPREFYNPHKPLEGDSSIMTYRGHRVTKTLLRAKFSPMEQTGQRYIYTGCATGRIIIYDVLTGKIQEAIEGHRTVIRDLDWHPDRSEIVSGSWDTHVHLNNFSRSNANRPVKRSHSSDHDKKPLRRSRRLANRNVTPD | failed
15 | MGNVGLLFVGAVLFMNGLLLLGKVDAKAAAVFNLFIGALQVLTPTYLIFTANGDPMKILAASGIYLFGFTYLYVGIGLLTGLDSTGVGYYSLFVAVAALGYSFVNFRLFKDYPFGVIWLYWAYLWFLFFLLLGLKKDDLKIYTGWVTAIEGWVTGAIPAGLLLSGYWKHPTETAIALAVFGVVVFVGLWPRTHRTPRPTSAAPRTGGVGAPT | failed
